Here are results for one molecule from article PMC11128199 (JCI Insight, 2024).

For this experiment, the target named is T1, stabilized SARS-CoV-2 Omicron S ECD HexaPro (SARS-CoV-2 Omicron BA.1, stabilised).
T1 construct: also called prefusion Omicron BA.1 S trimer; BA.1 S
Description: cryo-EM structure. As to conditions: both partners purified.

B1: 58G6 Fab (Fab, V domains shown)
VH: QMQLVQSGPEVKKPGTSVKVSCKASGFTFSSSAVQWVRQARGQHLEWIGWIVVGSGNTNYAQKFQERVTLTRDMSTRTAYMELSSLRSEDTAVYYCAAPNCNSTTCHDGFDIWGQGTVVTVSS
VL: EIVLTQSPGTLSLSPGERATLSCRASQSVRSSYLGWYQQKPGQAPRLLIYGASSRATGIPDRFSGSGSGTDFTLTISRLESEDFAVYYCQQYDNSPWTFGQGTKVEIK
As a reminder, the stoichiometry N is the number of molecules, sites or subunits per partner or assembly. Take B1: the “stoichiometry N” value came to 1 Fabs per S trimer.
